Results: PMC2901922

Key:
Assay in all cases: EMSA
λN11 = molecular target: T1, λN11 (bacteriophage λ, UniProt P03045 1-11)
T1 chain: MDAQTRRRERR

λN22 = molecular target: T2, λN22 (bacteriophage λ, UniProt P03045 1-22)
T2 chain: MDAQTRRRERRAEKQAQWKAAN

Acr-Link2-λN22 = molecular target: T3, Acr-Link2-λN22 (bacteriophage λ, UniProt P03045 1-22)
T3 chain: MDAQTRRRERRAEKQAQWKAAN

Measured: binding result

GCCCUGAAAAAGGGC (structured_RNA) [λ boxB 15mer]
binds: all assays above
